From US10059956B2, “Glycosyltransferase gene and use thereof” (SUNTORY HOLDINGS LIMITED, priority 2012, dated 2018) come the findings set out here.

Experiment [1] relates to petunia (Surfinia Bouquet Red). Description: Flower petal pigment analysis of recombinant petunia introduced with NmGT8. The format is in vivo. The text has this:
Binary vectors pSPB5424 and pSBP5428 for expressing NmGT8 were constructed and introduced into petunia (Surfinia Bouquet Red). […] Details of the introduced constructs are described below (see FIG. 17). pBINPLUS was used for the basic skeleton of pSPB5424, and three expression cassettes were contained therein (consisting of 1: E[…] promoter, full-length cDNA pansy F3'5'H (described in PCT/JP2004/011958, SEQ ID NO: 3) and HSP terminator (Plant Cell Physiology (2010), 51, 328-332); 2: E[…] promoter, full-length cDNA torenia flavone synthase and HSP terminator; and 3: E[…] promoter, full-length cDNA NmGT8 and HSP terminator). pBINPLUS was also used for the basic skeleton of pSPB5428, and two expression cassettes were contained therein (consisting of 1: E[…] promoter, full-length cDNA torenia flavone synthase and HSP terminator; and 2: E[…] promoter, full-length cDNA NmGT8 and HSP terminator). Pigments in the flower petals were analyzed for full-length cDNA torenia flavone synthase and full-length cDNA NmGT8 in those stains in which transcription products were confirmed. 0.2 g of completely open flower petals were freeze-dried for 24 hours or more and finely crushed with a spatula, followed by the addition of 4 ml of extract buffer (composition: 50% aqueous acetonitrile solution containing 0.1% TFA) and subjecting to ultrasonic treatment for 20 minutes. The flower petal extract was analyzed by high-performance liquid chromatography (Prominence (Shimadzu Corp.)). Analyses were carried out under the conditions and in the same manner as in Example 5. Non-recombinant petunia not introduced with genes and recombinant petunia introduced only with torenia flavone synthase that biosynthesizes flavone were analyzed in the same manner as controls (FIG. 18). Moreover, flower petal extract diluted 50-fold was also analyzed with a high-performance liquid chromatograph (Shimadzu Corp.). The Shimadzu LCMS-IF-TOF was used for the detector and flavones were detected at 433.1057 ([Api-Glc+H]) and 449.1084 ([Lut-Glc+H]). The Inertsil ODS-4 (250×4.6 mm, 5 Shimadzu Corp.) was used for the column. […]

A short description of experiment [2]: Enzyme activity of crude enzyme liquid of E. coli expressing NmGT0 to NmGT9 on apigenin (HPLC). It is filed as biochemical, Nemophila menziesii. The following applies: 80 μl crude enzyme liquid, UDP-glucose, 1 hour at 30° C., HPLC 330 nm. How it is done: 3 μg aliquots of each of pTOPO-NmGT0 to pTOPO-NmGT9 were treated with their corresponding restrictases followed by recovery of the resulting approximately 1.5 kb DNA fragments. 2 μg of vector pET15b was also treated with restrictase and ligated with the resulting DNA fragments to prepare E. coli expression constructs (pET-NmGT0 to pET-NmGT9).
pET-NmGT0 to pET-NmGT9 were introduced into E. coli strain […] using One Shot BL21 (DE3) (Invitrogen Corp.) in accordance with the protocol recommended by the manufacturer to acquire transformed E. coli. This E. coli was then cultured using the Overnight Express Autoinduction System 1 (Novagen Inc.) in accordance with the protocol recommended by the manufacturer. The transformed E. coli were cultured at 37° C. to an OD600 value of 0.5 in 2 ml of the prepared culture liquid (approx. 4 hours). This E. coli culture liquid was then used as a pre-culture liquid and added to 50 ml of culture liquid followed by final culturing overnight at 27° C. […]
A reaction liquid prepared by mixing 80 μl of crude enzyme liquid, 20 μl of 5 mM UDP-glucose, 20 μl of 1 M Tris HCl (pH 7.5) and 1 μl of 500 ng/μl apigenin on ice and bringing to a volume of 200 μl with water was held for 1 hour at 30° C. […] The Shimadzu PDA SPD-M10AVP was used for the detector and flavone was detected at 330 nm. […]

The mark [3] stands for this setting: recombinant petunia flower petal extract, LC-MS.

B1: NmGT8: nemophila glycosyltransferase (SEQ ID NO: 1/2) having activity that transfers a sugar to the hydroxyl group at the 4′-position of a flavone (protein, listed as Nemophila menziesii)
chain: MEKKTIILYPSPGIGHLVSMVELAKLILNREPSYSIIIFISSAPYSTGSSAPYISHVSATTSGISFHHLPVLVLPPNTFSSFEEIAYKIPQLNNPNLKLALQTISKESSDLKAFIIDFFCTAAVEVSSNLEIPTYFFFTSGSSAMCQFLYLPTLHETITQKDLQDPNTYVHIPGIPPIHSLDLPKVLSNRSTVLYKELINTANQMAKCSGILINAFETLEPKAVKALKEGLCTPGMPTPPVYCIGPLIASGDKGNVNDAHGHEILTWLNSQPSKSVVFLCFGSLGTFKEDQLKEIAIGLENSGHRFLWVMKSPPIDDKTKRFLPPPEPDFNVLLPEGFLERTKERGVIVKSWAPQLAILNHDAIGGFVTHCGWNSVLEAICGGVPMLAWPLYAEQRVNRVCMVEEMKVALPLEESVDGFVMASEIEKRVKELVDYESSEAIRDQVKIMSEKAKTAVAVSGSSHDALTKLLDGWK
For B1, in experiment [1] (setting [3]), the “flavone 4′-glucoside share of the biosynthesized flavones” value was 95.6% and the “flavone 7-glucoside share of the biosynthesized flavones” value was 4.4%. In addition, the “flavones detected in flower petals” value in experiment [1] (recombinant petunia introduced with flavone synthase and NmGT8, HPLC) was “apigenin 4′-glucoside and luteolin 4′-glucoside were detected”. The “HPLC peak other than substrate” value in experiment [2] was “a peak other than that of the substrate was observed”.
